These results are taken from publication PMC5389741 (Molecular cell, 2017).

For assay [1], the target named is T1, His-PGK1 (wild type, not acetylated) (human, UniProt P00558 1-417).
T1 sequence: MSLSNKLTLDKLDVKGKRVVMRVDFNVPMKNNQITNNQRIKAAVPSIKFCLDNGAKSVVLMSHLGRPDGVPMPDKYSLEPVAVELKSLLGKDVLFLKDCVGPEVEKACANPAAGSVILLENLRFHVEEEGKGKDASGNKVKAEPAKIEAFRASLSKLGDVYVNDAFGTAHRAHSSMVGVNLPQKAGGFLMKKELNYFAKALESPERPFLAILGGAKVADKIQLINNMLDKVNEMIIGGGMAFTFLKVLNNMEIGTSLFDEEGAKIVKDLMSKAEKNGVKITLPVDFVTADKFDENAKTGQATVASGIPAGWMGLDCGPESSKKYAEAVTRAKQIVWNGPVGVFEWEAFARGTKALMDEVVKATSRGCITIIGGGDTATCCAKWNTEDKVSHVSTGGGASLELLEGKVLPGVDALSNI
The assay can be described thus: pull-down.

The next assay deals with GST-Beclin1 (human, UniProt Q14457 1-450). The assay can be described thus: pull-down.
GST-Beclin1, sequence (Q14457 whole entry): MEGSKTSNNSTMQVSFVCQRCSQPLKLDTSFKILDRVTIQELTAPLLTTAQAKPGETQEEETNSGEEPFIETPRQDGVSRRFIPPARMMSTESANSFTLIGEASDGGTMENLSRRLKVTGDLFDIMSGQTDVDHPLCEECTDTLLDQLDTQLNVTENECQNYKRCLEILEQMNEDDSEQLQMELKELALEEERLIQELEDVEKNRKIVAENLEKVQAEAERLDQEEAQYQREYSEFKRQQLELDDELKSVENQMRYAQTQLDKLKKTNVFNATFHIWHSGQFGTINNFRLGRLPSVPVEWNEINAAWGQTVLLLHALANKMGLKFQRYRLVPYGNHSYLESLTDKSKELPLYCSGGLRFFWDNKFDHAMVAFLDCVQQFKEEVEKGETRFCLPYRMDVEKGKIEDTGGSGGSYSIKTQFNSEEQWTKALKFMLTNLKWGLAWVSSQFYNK

Numbering of substitutions follows the chain as printed. In names and notes the source's numbering stands.

B1: GST-ARD1 (wild type) (enzyme, human, UniProt P41227 1-235, looked up)
chain: MNIRNARPEDLMNMQHCNLLCLPENYQMKYYFYHGLSWPQLSYIAEDENGKIVGYVLAKMEEDPDDVPHGHITSLAVKRSHRRLGLAQKLMDQASRAMIENFNAKYVSLHVRKSNRAALHLYSNTLNFQISEVEPKYYADGEDAYAMKRDLTQMADELRRHLELKEKGRHVVLGAIENKVESKGNSPPSSGEACREEKGLAAEDSGGDSKDLSEVSETTESTDVKDSSEASDSAS
With B1, in assay [1], the binding result is listed as “binds”.

B2: GST-ARD1 S228A (enzyme, human, UniProt P41227 1-235, looked up)
chain: B1 chain with S228A
B2: the binding result in assay [1] was “binds”.

B3: His-PGK1 acetylated by Flag-ARD1 and Ac-CoA in vitro (enzyme, human)
chain: T1 sequence
modifications: acetyl-lysine at K388 (by ARD1 in vitro)
For the molecule B3, the binding result with GST-Beclin1 is “binds”.
